The values below come from paper PMC2599808.

Experiment [1] deals with recombinant wild-type cardiac troponin C (chicken) (UniProt P09860). Kind of experiment: native gel or EMSA. In general terms: Mobility shift assays separate free from complexed probe on a gel.
The target in experiment [2] is recombinant wild-type cardiac troponin T (rat) (UniProt P50753). The experiment is described as follows: native gel or EMSA.

One may read the stoichiometry N as a count of units in the complex or per binding partner.

In the case of “cTnI(188C), cardiac troponin I single-cysteine mutant C81I/C98S/E188C labeled with AEDANS (from UniProt P48787 1-211) (natural protein)”, the stoichiometry N in experiment [1] and in experiment [2] was 1 in each case.

For “cTnI(151C), cardiac troponin I single-cysteine mutant C81I/C98S/S151C labeled with AEDANS (from UniProt P48787 1-211) (natural protein)”, the stoichiometry N in experiment [1] and in experiment [2] was 1 in each case.

As for “cTnI(210C), cardiac troponin I single-cysteine mutant C81I/C98S/E210C labeled with AEDANS (from UniProt P48787 1-211) (natural protein)”, the stoichiometry N in experiment [1] and in experiment [2] was 1 throughout.

In the case of “cTnI(167C), cardiac troponin I single-cysteine mutant C81I/C98S/S167C labeled with AEDANS (from UniProt P48787 1-211) (natural protein)”, the stoichiometry N in experiment [1] and in experiment [2] was 1 in each case.

Consider “cTnI(131C), cardiac troponin I single-cysteine mutant C81I/C98S/Q131C labeled with AEDANS (from UniProt P48787 1-211) (natural protein)”, for which the stoichiometry N in experiment [1] and in experiment [2] was 1 each time.

Regarding “cTnI(160C), cardiac troponin I single-cysteine mutant C81I/C98S/L160C labeled with AEDANS (from UniProt P48787 1-211) (natural protein)”, the stoichiometry N in experiment [1] and in experiment [2] was 1 throughout.
